Measurements reported in article PMC2921345.
Each block holds one substance with its values, some of them ahead of it.

Experiments:
[1] = target: GFP-N-WASP (neuronal Wiskott Aldrich syndrome protein, wild type) (UniProt O08816); assay: AP-FRET (acceptor photobleaching FRET) in transfected cells; settings: mRFP-Toca-1MGD383-385IST and GFP-N-WASP; 36 hr expression; n = 7-10, from 2-3 experiments
[2] = target: mRFP-Toca-1 (Transducer of Cdc42-dependent actin assembly, wild type); assay: as above
[3] = target: mRFP-Toca-1 (Transducer of Cdc42-dependent actin assembly, wild type) (human); assay: FRET or BRET; frequency-domain FLIM of the GFP donor (LIFA system, 40 MHz) in cells co-expressing GFP and mRFP proteins; lifetime of GFP in cells approximately 2.2 ns
Chain of mRFP-Toca-1 (Transducer of Cdc42-dependent actin assembly, wild type) (human) (Q5T0N5 whole entry): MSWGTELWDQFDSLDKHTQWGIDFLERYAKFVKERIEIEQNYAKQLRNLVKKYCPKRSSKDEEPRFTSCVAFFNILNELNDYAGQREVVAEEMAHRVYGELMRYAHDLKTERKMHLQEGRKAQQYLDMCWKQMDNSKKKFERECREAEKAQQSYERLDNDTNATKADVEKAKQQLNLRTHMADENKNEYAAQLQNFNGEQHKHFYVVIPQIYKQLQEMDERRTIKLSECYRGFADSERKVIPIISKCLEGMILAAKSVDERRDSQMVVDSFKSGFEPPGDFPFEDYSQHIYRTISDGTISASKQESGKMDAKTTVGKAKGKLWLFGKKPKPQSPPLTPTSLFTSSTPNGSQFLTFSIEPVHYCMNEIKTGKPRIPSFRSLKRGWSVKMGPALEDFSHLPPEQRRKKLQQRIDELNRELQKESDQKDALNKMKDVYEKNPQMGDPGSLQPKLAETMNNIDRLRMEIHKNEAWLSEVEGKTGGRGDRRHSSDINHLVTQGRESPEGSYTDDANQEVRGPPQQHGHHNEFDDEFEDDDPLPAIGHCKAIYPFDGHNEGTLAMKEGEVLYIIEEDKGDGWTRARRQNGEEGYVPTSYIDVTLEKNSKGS

- other: FRET efficiency [1]: 17.5%
Substance: mRFP-Toca-1 (Transducer of Cdc42-dependent actin assembly, wild type) M383I; G384S; D385T

- other: FRET efficiency ([2]; ROI on tubules, mRFP-Toca-1, HA-N-WASP and GFP-Cdc42G12V co-expressed, 36 hours expression): 9%
- other: FRET efficiency ([2]; ROI on vesicles, mRFP-Toca-1, HA-N-WASP and GFP-Cdc42G12V co-expressed, 36 hours expression): 0.03%
Substance: Cdc42 (wild type) G12V

- GFP donor lifetime (FLIM), in tubules [3]: 1.59 ns
- GFP donor lifetime (FLIM), in vesicles [3]: 1.64 ns
Substance: GFP-N-WASP (neuronal Wiskott Aldrich syndrome protein, wild type) (from UniProt O08816 1-501) (natural protein)

- other: FRET efficiency ([2]; mRFP-Toca-1 and GFP-N-WASPH208D, 36 hr expression, n = 7-10, from 2-3 experiments): 3.87%
Substance: GFP-N-WASP (neuronal Wiskott Aldrich syndrome protein, wild type) (from UniProt O08816) H208D
